Source: publication PMC2474558

Key:
[1] = target: T1, hDOP–Renilla luciferase (human), P41143; test: FRET or BRET; conditions: remark: other sources report otherwise
T1 chain: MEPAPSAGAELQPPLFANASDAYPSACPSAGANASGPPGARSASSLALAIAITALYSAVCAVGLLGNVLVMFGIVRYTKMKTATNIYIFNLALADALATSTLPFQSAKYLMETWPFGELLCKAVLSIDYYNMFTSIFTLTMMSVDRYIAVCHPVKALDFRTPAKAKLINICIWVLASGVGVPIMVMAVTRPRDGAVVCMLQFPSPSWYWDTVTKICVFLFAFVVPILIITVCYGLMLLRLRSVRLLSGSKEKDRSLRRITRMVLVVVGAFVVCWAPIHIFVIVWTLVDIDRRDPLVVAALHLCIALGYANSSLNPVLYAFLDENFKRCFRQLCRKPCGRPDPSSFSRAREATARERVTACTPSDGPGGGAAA

[2] = target: T2, hCXCR2–Renilla luciferase (human), P25025; test: FRET or BRET; conditions: remark: other sources report otherwise
T2 chain: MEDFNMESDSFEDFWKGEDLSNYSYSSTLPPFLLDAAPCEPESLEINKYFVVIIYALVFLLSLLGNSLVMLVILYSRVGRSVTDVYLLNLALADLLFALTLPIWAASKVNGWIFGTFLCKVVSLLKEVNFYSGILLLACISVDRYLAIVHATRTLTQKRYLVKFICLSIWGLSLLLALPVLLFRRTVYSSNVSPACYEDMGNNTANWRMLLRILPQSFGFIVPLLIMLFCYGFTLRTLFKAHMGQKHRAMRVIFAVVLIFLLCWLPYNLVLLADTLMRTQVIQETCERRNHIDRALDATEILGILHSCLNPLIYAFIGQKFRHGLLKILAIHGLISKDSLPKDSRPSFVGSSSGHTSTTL

Row | Binder | BRET50 ([acceptor] to [donor] ratio) [1] | BRET50 ([acceptor] to [donor] ratio) [2]
1 | hDOP–GFP^2, P41143 1-372 (receptor) MEPAPSAGAELQPPLFANASDAYPSACPSAGANASGPPGARSASSLALAIAITALYSAVCAVGLLGNVLVMFGIVRYTKMKTATNIYIFNLALADALATSTLPFQSAKYLMETWPFGELLCKAVLSIDYYNMFTSIFTLTMMSVDRYIAVCHPVKALDFRTPAKAKLINICIWVLASGVGVPIMVMAVTRPRDGAVVCMLQFPSPSWYWDTVTKICVFLFAFVVPILIITVCYGLMLLRLRSVRLLSGSKEKDRSLRRITRMVLVVVGAFVVCWAPIHIFVIVWTLVDIDRRDPLVVAALHLCIALGYANSSLNPVLYAFLDENFKRCFRQLCRKPCGRPDPSSFSRAREATARERVTACTPSDGPGGGAAA | 2.2 | 
2 | hCXCR2–GFP^2, P25025 1-360 (receptor) MEDFNMESDSFEDFWKGEDLSNYSYSSTLPPFLLDAAPCEPESLEINKYFVVIIYALVFLLSLLGNSLVMLVILYSRVGRSVTDVYLLNLALADLLFALTLPIWAASKVNGWIFGTFLCKVVSLLKEVNFYSGILLLACISVDRYLAIVHATRTLTQKRYLVKFICLSIWGLSLLLALPVLLFRRTVYSSNVSPACYEDMGNNTANWRMLLRILPQSFGFIVPLLIMLFCYGFTLRTLFKAHMGQKHRAMRVIFAVVLIFLLCWLPYNLVLLADTLMRTQVIQETCERRNHIDRALDATEILGILHSCLNPLIYAFIGQKFRHGLLKILAIHGLISKDSLPKDSRPSFVGSSSGHTSTTL |  | 1.6
